The values that follow come from the domain aggregation screens of Martell et al. (2025).
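Further: 20 min heating vs room temperature control held 20 min.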

The series in a line: soluble fraction after stress (log2 fold change); higher = more stays soluble; pooled small domains, quantitative proteomics. Conditions: stress: 75 degC.
For the sequence “HMITNSTEIEAMIDSLIKENPEQAEQYRNGNTKVVGWFVGQMMKASKGKANPQVVGDLLAQKLVG”, the “soluble fraction (log2)” value turned out to be 0.0621. For the sequence “HMIVAHEINRHLGESDQPVEIPDNRREGAVAELLKTFNNDDAFREMDDGKYEVALDGEKVREAARSLLA”, the “soluble fraction (log2)” value came to 0.0479.

Regarding “HMIVDARNREINLGSHVRYVDTGTVGEVTDSKVENDASWVKIDKTNLWYLANKLELLNDEDFKT”, the “soluble fraction (log2)” value was 0.0789.

In the case of “HMIVDINDVRIDKYIADNTDYSRNLILNLIKNGDILVNDSKIKPSYKVKQGDKITINNVKTD”, the “soluble fraction (log2)” value worked out at 0.332. Under “HMIVKQPDIRKQELLDIGVRLYFEAGEKGVSIQQVVKQAGVATGLFYYYFSSKDAFLDEALNDYID” stands 0.0613.

As to “HMIVLPGEELEVHIVQEGKEDGQGVAYLDDGTMVVVEGGRPYVDSFAYVAVTRVLQTGAGRIIFAHPTR”, the “soluble fraction (log2)” value is -2.54. Under “HMIYNSGTTDSRGEAIVGGYLVTVTDTDTKDPVANAAVTLHKDNSISIRLPNSRLLDYADQTTVTVQLV” stands 0.0328. “HMKAEKEIEKIKFTIYNEFKRKQEENHFLPPWDGTKMLRQFVLGVVANNPKYQHVNTDILYRDLLLLYYQ”: the “soluble fraction (log2)” value was -2. “HMKAFTKKELQDLVLNIFRASPTTNYNYKQLYKLIRGKDPEIKTLIIAVLLGLEKNGSILQMRPGKYKFS”: the “soluble fraction (log2)” value was 0.97. Take “HMKALDTVLSEIPGLGPVRIKQLLKVFGSVDAIRKASLQDLQQIEGIGPKLAQTIYEYFHQP”: the “soluble fraction (log2)” value amounted to 0.898.

For “HMKALYNLDYEKPLSGSYYTETTARAAVPTDIRKLGLIITYKTDATTNITEQFVGSSISAWTTSGNWKSLG”, the “soluble fraction (log2)” value was -1.77.

For “HMKAPPLTDREKEILRWVAAGLQNKEIAHKLGISLATVRNHIHNILEKLDVHSKLEAVSLAFRQGWVS”, the “soluble fraction (log2)” value is -0.356. In the case of “HMKASEMKKGQTIKIDGVLYVIVDFQHVKLSKGGAVYQTKLRNLAAGGIRDIRIRAEEVLEDA”, the “soluble fraction (log2)” value was -2.97. Regarding “HMKDITPASEDQLKAITDLMLKVNGEWSDAFFTFISKKFNHQISSPEQLTTFEANTIIDMLRKKAEG”, the “soluble fraction (log2)” value is -0.601. Regarding “HMKDLDSLSQEAKSVYAVFSDKPIHIDDIKRKTGLDFSKLFKAVTELELAELISSGEGKMYSL”, the “soluble fraction (log2)” value is -0.0075.

“HMKDLTIRQQQFLNYIKDHLSLTGFPPTRSDIANEMGFKSPNAAEDHLRALARKGAIEIVPGTSRGIRLP”: the “soluble fraction (log2)” value was -0.419.

For “HMKDMKISTKNLLQELAKNYPDQTSFRKNVIETTARAMGYTGKDFYPLLTTDNRVKIGTYDLATFLRSI”, the “soluble fraction (log2)” value is -0.969. “HMKDNPNETFERIAGKITRTLRSGPVRIQQLDLLFSESAGKVVDVLRAMAENGEVLIKDDTIQLNGNN”: the “soluble fraction (log2)” value is -0.0108. “HMKDTFHNLSEEKRERIIRAALGEFAASGYEKATLDGVVQAAGISKGGLYEYISSKEDLFRYLLEYSYD”: the “soluble fraction (log2)” value is -1.82. Under “HMKDTNENLMKMLALLIHAAKIDENYSDEEKELIVNFAEMSSKENLNREQILSIIKSAEEYE” stands -1.24; under “HMKEADVRKNEILDAAGILFSEKGYDNTSVTDIMNAVGFAKGTLYHHFKSKEDIMDALIKRQTD”, -0.125. With “HMKEAISIYPNPVKDILTIRGMDETSGVSFKLYDVTGNLLLESTHSELDMSGLNRGVYFLDIAGDVRKVVK”, the “soluble fraction (log2)” value was -0.342.

As to “HMKEEDLPREYTDILGNSVHERLNIMIHDIIEHSQDKPEVAMSPEREEAMHGLRRWMFDHVYH”, the “soluble fraction (log2)” value is -0.168. Take “HMKEEVEILGGKATIYTNDYGVWQFRLWLTTDNKYVRKSLRTKVKDYAITEGEKLYIQIRSDIEKGIKYY”: the “soluble fraction (log2)” value is -1.13. Consider “HMKEEVSVPDIKGMTYEEAEAKLAKYDLEIEKGETVKASEQYEEGQISSQEPEAGSKVKEGSTIVVDVVE”, for which the “soluble fraction (log2)” value stood at 0.185. In the case of “HMKEFSFNGGKVIMNYEADRIQIKHDSRPNQEVITLMKRNGFKWSPTNQAWQRQITGNAIYVTKNLLKS”, the “soluble fraction (log2)” value was -2.33. On to “HMKEGGGYGQLRLKEAAIQHAFDLQNALQFIAERGYQAHENTTLKEAANALNLKPIELLELLKSSQ”, for which the “soluble fraction (log2)” value was found to be 0.0627. The value for “HMKEIDVPNVVGASENAARKLLESYGFQVEVQWENGERVDNAVVKSYSPNGSAKSGSTVTIVLGT” was 0.0998; that for “HMKEINFTIEESAKGRLDKVIAENVADLTRSQVQSLIKKGQILVNDAPTTNRYQVKPNDQVIIKLPDPV” was 0.396; that for “HMKEKLGEFENVFLSVDELQKLKSKLGAETESYIERLSNYIASSGKKYKSHYATILSWTQKDTK” was -0.88. As for “HMKELASKYEISEYMKFLIENLDKSNFFYPIEKRESMINNIFSIYSKADLSKKELNMLWGMLKKLR”, the “soluble fraction (log2)” value is -2.31.

For the sequence “HMKELTELIEKIKLRRLELGLSYQELSDLTGINKSTLQRYETGFIKKVPINQVQIIAKALNVTPGYLMG”, the “soluble fraction (log2)” value was -0.72. Turning to “HMKEMTAKQIDMFSDKLSKLESFQSHYIADAGVSVTEYKQAIAAKLQDQFYVEAWGKYLADVGFT”, the “soluble fraction (log2)” value is -0.393. For the sequence “HMKEPIYQTILSALILELNTNHFRKNDPFYSESELRKKYQVSSTTVVRVLNMLADQGYIYRIQGKGSFVSK”, the “soluble fraction (log2)” value was -2.62. On to “HMKESFAQLFSLLTPTEQKVAALISQGFSNKDIAAKMFISLSTVKTHTNHIFAKMGVANRNALVAKVNN”, for which the “soluble fraction (log2)” value was -1.46.

“HMKESRFDYDAVLLYSDKDSITEVKDAVQHLTKEFGSVFTTKKIPEKATFGKLFRIEKGEVNIIEDN”: the “soluble fraction (log2)” value was 0.367. Take “HMKESRLFRILYYLLQHKKATAPELAEEFEVSVRTIYRDIDYISSAGVPIYATQGKDGGIAILDSF”: the “soluble fraction (log2)” value is -0.777. On to “HMKETLSINSTDFEVRRSSRRKRISVGFDTGTETFFIAAPTKLAGTDILRILGPQISRLMDRLT”, for which the “soluble fraction (log2)” value is -2.22. The value for “HMKEVDERPWGKYEVLLDAPDVKVKRITVNPGQRLSYQYHEKRAEVWTVVSGILTIILEDDKLFRG” was 0.17; that for “HMKFIPPSLEEARAYFVEKGSSEPEAEKFVNHFDSIGWKVGRARTPMKKWKSAANNWIANNREWNQ” was -0.543; that for “HMKFKDYYAALGIDRNADLEQIKKAYRKLARQYHPDVSKAPDAEARFKDAAEAYATLKNPEKRAAYDELGS” was 0.0895.

Consider “HMKFLHLADLHLGKRVNGFSMLEDQAYILRQILTILDDERPDGVLIAGDVYDKPVPPTEAVELLD”, for which the “soluble fraction (log2)” value was -0.859.

Consider “HMKFLYQKAREEIISLIQDGEIKPSEKIMPERELSELLGYNRMTIKKAINSLVAEGVLMKKRGAGTFLLG”, for which the “soluble fraction (log2)” value is -0.292. As to “HMKFLYQQVYQDIKDKITSAQYQFGDLLPSEREIGEEYHVDRTTVRKAFSLLVDEGLVEKRAGKGSVVIS”, the “soluble fraction (log2)” value was -0.74.

As to “HMKFTELEQLMLKREINTLADIARVLKTTPQAVSNWKARDQIPYHIVAKINASINKDSNDSSLSI”, the “soluble fraction (log2)” value was -0.328.

On to “HMKFTSEKDISLLELVKAKMGFVSNTKARNVIKIGQIMVSGKVIKIPSTLIKPGTEVELARRV”, for which the “soluble fraction (log2)” value is -1.76. In the case of “HMKFYKMIDESDEKIENPEIMIFQIIELVSSTTYSAIINKEPVDVETLKPYLYQTIRTIIINHQS”, the “soluble fraction (log2)” value is 0.363. The value for “HMKGEKVTKIELSNFIKFLINDLENKGFFNPPEKKDSMIDNIYSIYNKMTLTKKELNMLWGMHKKLK” was -1.9.

For the sequence “HMKGERHNKILELIQQHAIDRQEDLLRYLKEAGFQVTQATVSRDIRELHLVKVAAGGGQYRYVSAAAAS”, the “soluble fraction (log2)” value was -1.04.

Regarding “HMKGIHDYITKDGLRVVKVHYSADPDKDVTTVEGKKWMAKALLGYPGGLEGAKWRREMEIDFNA”, the “soluble fraction (log2)” value is -0.167. As for “HMKGILVPASSIISDGDKNYVWTVEKGKAKKVEVTLGNADAENQEISSGLTKDSKVITNPTDSLKDGQEV”, the “soluble fraction (log2)” value came out at 0.228. For “HMKGKDLQDAVVTVVGGAENWNAIRAWAQASASDSEKREINAAFQSGKLMATMMAERLALAYQQSG”, the “soluble fraction (log2)” value stood at 0.182.

For the sequence “HMKGKITTNWVSLTSDLGWLRSELYSSGSVLEERISNEGLIELHLENFQNDLIKLLEVEGFDLIKE”, the “soluble fraction (log2)” value is -3.18. “HMKGQLVVFPNPASSNDMVRFNKNISFSIFDITGHLVDTKRNVNELSVGNLEAGTYILRTEQGDVLRMVI”: the “soluble fraction (log2)” value is -1.45. As for “HMKGRPTTAIITDERTNLRSGPGATNKTIAQAGAGEKLAIIDEKDGWYQVSRAGINGWVAGWVIDVAW”, the “soluble fraction (log2)” value is -1.83. With “HMKGSIFLDEATKMVDNSALKSLNTFLEEYARETNNQIFLISHQETPAEVTQIKLKKVGGETSYE”, the “soluble fraction (log2)” value was determined as 0.154. The value for “HMKGSPFSQLPKEKKKRILQAAIEVFAQNDYKHASTDEIASRAGISKGLLFYYFHDKKTLYFYLGEYLKR” was 0.118; that for “HMKGTLPEMITSREEVVLKFMVNGWDAKRIASELDISVLTVRKHIANIYEKLHVQSKAEIISMAHQQKWFN” was -3.27. Under “HMKGTSIELIVPQDIAGLRLDQVLAKLLPQWSRSRLQSWINEKHITVNGQTTTAKQKLWGNETIQIIPPI” stands -1.45; under “HMKHEFSEEWLDWIKSNIADGQNKNGLFKVLLNHGYAYDAVREVMQYEPTVPLDELVDPLRA”, -0.143; under “HMKHFNDEELDGFAGLKSDDYNEEQVELFRNIFEELHPDEIIEWTESLRRRGIEIPSSLKDEVVMMIN”, 0.29. Regarding “HMKHFTYEEMELMSIYDPGTREGLIANLEEMRGYLEPDETELRELTDSALEKLRELSDADYEQLELI”, the “soluble fraction (log2)” value was -0.516.

Turning to “HMKHMTMYEAAKIAKEVGAPKLWLTHYSPSMTRPEEFMDDVRKIFPAAYAAKDGWTMELNFDEG”, the “soluble fraction (log2)” value is -0.74. Under “HMKHRTQMDIQQLPAIEGKGGFEYKISIIHLSTRIKYSEIHDNYNTTTIAKVYENAIERLPPF” stands -2.39; under “HMKHSLNHLGLWLLPELSRRDIQLREFAHLLGTTSQGLSDLLRGQRFSSHTLAQWQLRFQEKLDEIDQAS”, -1.99.

For “HMKHTVSVDRLQPGVFVSLGGLSWLDHPFLLNRFRLTDHDQIKVLRSLGVKEIEWDPTRSTAQPLPE”, the “soluble fraction (log2)” value was -1.04. As for “HMKIAPRTAENQQLRKMILEIYTTSKKRVGPAKVRRMLLRDYGISISIGRVYRLMSTMNLPKMS”, the “soluble fraction (log2)” value was 0.0421. Turning to “HMKIDLPIWLNKKAWEAWVEYKKERKQKLTPSIIKFQLRILEKNKEDHPEIIRNSITNGWTGLFPLK”, the “soluble fraction (log2)” value is -1.81. Under “HMKIEDSNTIKLKANQAYKTHYYSEAIKLYDELLTKYEPNSEAIKLNLAHAHFKAKGFAAASKLYT” stands 0.0472. Regarding “HMKIELTDQQKSLVVDEWNKGEANPPSLLQLIRLAYPDQPHLDGRSKEGKAVKAFLATRDINPLA”, the “soluble fraction (log2)” value turned out to be 0.0244.
